± gives the uncertainty stated by the source.
B1: Homeobox protein SIX6, residues 134 to 184; numbered along this chain, O95475 (parent)
chain: CFKERTRHLLREWYLQDPYPNPSKKRELAQATGLTPTQVGNWFKNRRQRDR

Variants of: B1
Experiment: abundance fitness (aPCA) (normalised: wild type 0, dead -1); higher = more abundant; growth selection in yeast, the domain comes from the species named
Settings: Homo sapiens

Variant	abundance fitness
R7P	-0.359 ± 0.07
R7T	0.01 ± 0.052
D50I	-0.995 ± 0.43
D50R	-0.777 ± 0.05
D50E	-0.26 ± 0.14
D50C	-0.73 ± 0.14
D50H	-0.605 ± 0.22
Y19V	-0.625 ± 0.094
Y19M	-0.312 ± 0.092
Y19L	-0.488 ± 0.088
Q48N	0.04 ± 0.15
Q48L	-0.522 ± 0.11
Q48T	-0.411 ± 0.096
Q48F	-0.526 ± 0.13
Q48Y	0.226 ± 0.087
Q48H	0.11 ± 0.12
R51E	-0.094 ± 0.18
R51V	-0.545 ± 0.21
R51W	-0.832 ± 0.25
R51S	-0.646 ± 0.45
Q30W	0.057 ± 0.069
Q30N	-0.374 ± 0.17
Q30H	-0.205 ± 0.15
Q30D	-0.064 ± 0.085

Variant	abundance fitness
Q30L	-0.25 ± 0.046
Q30R	-0.365 ± 0.059
A29T	-1.07 ± 0.23
A29E	-0.815 ± 0.16
A29F	-1.07 ± 0.38
A29H	-0.944 ± 0.15
A29W	-0.923 ± 0.13
A29D	-0.504 ± 0.16
R49W	-0.594 ± 0.13
R49V	-0.503 ± 0.093
R49H	-0.889 ± 0.26
R49N	-0.287 ± 0.18
R49S	-0.334 ± 0.066
R49C	-0.376 ± 0.11
R49A	-0.278 ± 0.092
W13A	-0.003 ± 0.061
W13R	-0.608 ± 0.05
W13D	-0.765 ± 0.074
W13E	-0.067 ± 0.093
W13L	-0.259 ± 0.045
K3T	0.201 ± 0.063
K3Q	-0.402 ± 0.13
L28F	-0.442 ± 0.14
L28C	-0.79 ± 0.19

Variant	abundance fitness
P22C	0.146 ± 0.19
P22K	-0.833 ± 0.29
P22A	-0.109 ± 0.071
P22E	0.104 ± 0.088
P22W	-0.281 ± 0.15
P22I	-0.618 ± 0.36
P36C	-0.527 ± 0.11
P36H	-0.553 ± 0.09
P36N	-0.542 ± 0.16
P36W	-0.328 ± 0.047
P36K	-0.33 ± 0.092
P36V	-0.17 ± 0.058
F2P	-0.383 ± 0.11
F2K	0.247 ± 0.11
F2D	0.05 ± 0.091
F2V	-0.255 ± 0.063
F2E	0.102 ± 0.094
F2Y	-0.11 ± 0.14
F2Q	-0.182 ± 0.09
E4M	-0.131 ± 0.15
E4N	-0.03 ± 0.22
E4P	-0.741 ± 0.17
P20V	-0.613 ± 0.079
P20L	-0.411 ± 0.071

Variant	abundance fitness
P20S	-0.724 ± 0.17
T35L	-0.733 ± 0.075
T35Y	-0.953 ± 0.079
T35D	-0.663 ± 0.13
T35P	-0.877 ± 0.071
G40F	0.225 ± 0.18
G40C	-0.279 ± 0.092
G40P	-0.783 ± 0.18
G40S	0.152 ± 0.062
K44D	-0.57 ± 0.19
K44T	-0.398 ± 0.079
T37E	0.018 ± 0.081
T37N	-0.169 ± 0.06
T37I	-0.1 ± 0.11
T37R	0.084 ± 0.045
T37D	0.026 ± 0.078
T37A	-0.005 ± 0.066
N21S	-0.071 ± 0.098
N21E	-0.129 ± 0.2
N21I	-0.672 ± 0.47
N21A	-0.222 ± 0.099
N21K	-0.417 ± 0.35
D17F	-0.829 ± 0.11
D17M	-0.849 ± 0.1

Variant	abundance fitness
D17A	-0.998 ± 0.081
D17E	-0.643 ± 0.15
L15N	0.153 ± 0.18
L15F	-0.651 ± 0.28
K25N	-0.48 ± 0.21
K25F	-0.272 ± 0.076
S23C	-0.444 ± 0.15
S23Q	-0.028 ± 0.06
S23V	-0.35 ± 0.067
R26N	0.069 ± 0.068
R26V	0.055 ± 0.048
R26S	-0.182 ± 0.11
R26Y	-0.378 ± 0.26
P18E	-0.769 ± 0.2
P18W	-0.491 ± 0.12
P18Q	-0.234 ± 0.065
R5T	0.159 ± 0.12
R5G	0.082 ± 0.094
R5E	0.068 ± 0.099
R5L	-0.175 ± 0.07
R5M	0.078 ± 0.17
W42A	-1.05 ± 0.23
W42V	-0.931 ± 0.18
W42T	-0.581 ± 0.14

Variant	abundance fitness
W42F	-0.649 ± 0.49
Q16H	-0.406 ± 0.1
Q16S	-0.127 ± 0.056
Q16L	0.421 ± 0.12
Q16W	-0.727 ± 0.38
Q16P	-0.782 ± 0.15
Y14A	-0.987 ± 0.12
Y14P	-0.983 ± 0.14
Y14K	-0.683 ± 0.19
Y14M	-0.825 ± 0.23
Y14E	-0.788 ± 0.14
Y14H	-0.974 ± 0.23
N45I	-0.394 ± 0.062
N45D	-0.261 ± 0.2
N45F	-0.712 ± 0.23
N45A	-0.378 ± 0.077
R46L	-0.604 ± 0.067
R46D	-0.728 ± 0.21
R46K	-0.151 ± 0.11
R46H	-0.72 ± 0.34
R46M	-0.344 ± 0.1
R46Y	-0.505 ± 0.055
N41R	0.155 ± 0.049
N41G	-0.627 ± 0.065

Variant	abundance fitness
N41C	-0.158 ± 0.12
N41S	-0.342 ± 0.087
K24V	-0.13 ± 0.076
K24G	-0.374 ± 0.074
K24A	-0.009 ± 0.063
K24S	-0.192 ± 0.059
K24D	-0.197 ± 0.068
L9N	-0.827 ± 0.066
L9K	-0.258 ± 0.13
L9Q	-0.35 ± 0.088
L9F	-0.213 ± 0.14
L9A	-0.387 ± 0.093
L9Y	-0.283 ± 0.053
L9I	0.145 ± 0.12
E27K	-0.71 ± 0.23
E27G	-0.805 ± 0.1
E27Q	-0.758 ± 0.39
E27R	-0.437 ± 0.061
R47V	-0.756 ± 0.087
R47Y	-0.637 ± 0.26
R47K	-0.861 ± 0.2
R47F	-0.501 ± 0.22
R47G	-0.762 ± 0.059

— the Human Domainome abundance scans (Beltran et al. 2025)
